Source: patent publication US20240043542A1 (published 2024)

Assays:
[1] = target: T1, mouse B7-H4 (recombinant, BLI) (mouse, UniProt Q7TSP5 29-256, limits assumed); experiment: BLI, antigen on Protein A tips;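 note: Anti-B7-H4 antibodies assessed for affinity toward the B7-H4 extracellular domain using biolayer interferometry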
T1 construct: also called murine B7-H4
T1 sequence: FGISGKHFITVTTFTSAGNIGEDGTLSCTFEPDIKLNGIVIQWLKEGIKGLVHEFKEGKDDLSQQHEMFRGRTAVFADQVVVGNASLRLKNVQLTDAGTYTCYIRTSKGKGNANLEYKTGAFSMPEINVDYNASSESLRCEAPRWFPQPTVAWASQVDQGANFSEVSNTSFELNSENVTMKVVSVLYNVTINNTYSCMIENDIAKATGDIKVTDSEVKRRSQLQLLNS
Experimental: (§1) Binding affinities of anti-B7-H4 antibodies to B7-H4-extracellular domain (ECD) were determined by biolayer interferometry (BLI). […] Anti-B7-H4 antibodies were then evaluated for binding.

[2] = target: T2, recombinant human B7-H4-huIgG1 (human); experiment: BLI, antigen on Protein A tips;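 note: Anti-B7-H4 antibodies assessed for affinity toward the B7-H4 extracellular domain using biolayer interferometry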
T2 construct: also called B7-H4-extracellular domain (ECD)
Experimental: as §1

[3] = target: T3, cynomolgus monkey B7-H4 (recombinant, BLI) (cynomolgus monkey, UniProt Q7Z7D3 25-259 (human entry)); experiment: BLI, antigen on Protein A tips;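 note: Anti-B7-H4 antibodies assessed for affinity toward the B7-H4 extracellular domain using biolayer interferometry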
T3 construct: also called Cynomolgus B7-H4
T3 sequence: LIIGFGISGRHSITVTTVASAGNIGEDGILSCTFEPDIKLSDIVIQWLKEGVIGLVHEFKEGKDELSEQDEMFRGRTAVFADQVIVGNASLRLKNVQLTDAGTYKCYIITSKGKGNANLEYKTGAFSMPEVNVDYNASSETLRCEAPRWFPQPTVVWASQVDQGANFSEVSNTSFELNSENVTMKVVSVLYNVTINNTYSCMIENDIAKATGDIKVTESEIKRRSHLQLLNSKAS
Experimental: as §1

[4] = target: T4, human B7-H4 on the cell surface (human, UniProt Q7Z7D3 25-282); experiment: cell-based or functional assay
T4 sequence: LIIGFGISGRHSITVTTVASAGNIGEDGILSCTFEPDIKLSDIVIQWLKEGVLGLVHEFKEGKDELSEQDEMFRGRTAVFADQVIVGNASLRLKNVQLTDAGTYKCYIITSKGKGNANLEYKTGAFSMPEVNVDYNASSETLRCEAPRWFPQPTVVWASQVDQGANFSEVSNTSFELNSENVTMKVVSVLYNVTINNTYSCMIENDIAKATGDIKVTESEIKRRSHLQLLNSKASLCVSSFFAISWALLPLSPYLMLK

B1: B7-H4 antibody 22208 (antibody, human IgG1, kappa, V domains shown)
VH: QLQLQESGPGLVKPSETLSLTCTVSGGSIKSGSHYWGWIRQPPGKGLEWIGNIYYSGSTYYNPSLKSRVTMSVDTSKNQFSLKLSSVTAADTAVYYCAREGSYPNWFDPWGQGTLVTVSS
VL: EIVMTQSPATLSVSPGERATLSCRASQSVSTNLAWYQQKPGQAPRLLIYDASARVTGIPARFSGSGSGTEFTLTISSLQSEDFAVYYCQQYHSFPFTFGGGTKVEIKR
notes: human IgG1/kappa
[1]
  Kd: 16.7 nM
  koff: 0.00167 s⁻¹
  kon: 99500 M⁻¹ s⁻¹
[2]
  Kd: 5.67 nM
  koff: 0.00104 s⁻¹
  kon: 184000 M⁻¹ s⁻¹
[3]
  Kd: 5.44 nM
  koff: 0.00108 s⁻¹
  kon: 199000 M⁻¹ s⁻¹

B2: B7-H4 antibody 20506 (antibody, V domains shown)
VH: QLQLQESGPGLVKPSETLSLTCTASGGSISHGGYYWSWIRQHPGKGLEWIGNIYYSGSTYYNPSLKSRVTMSVDTSKNQFSLKLSSVTAADTAVYYCARESSTISADFDLWGRGTLVTVSS
VL: DIQMTQSPSSVSASVGDRVTITCRASQGISRWLAWYQQKPGKAPKLLIYAASSLQSGVPSRFSGSGSGTDFTLTISSLQPEDFATYYCQQAHTFPYTFGGGTKVEIKR
notes: human IgG1/kappa
[4]
  Donor 1 Max IFNγ: 981 pg/mL
  Donor 2 Max IFNγ: 259 pg/mL
  Donor 3 Max IFNγ: 86.1 pg/mL
  Donor 4 Max IFNγ: 2300 pg/mL
  aAPC Assay EC50 (IFNγ production): 1.25 nM
[1]
  Kd: 3.53 nM
  koff: 0.00164 s⁻¹
  kon: 466000 M⁻¹ s⁻¹
[2]
  Kd: 1.69 nM
  koff: 0.000746 s⁻¹
  kon: 441000 M⁻¹ s⁻¹
[3]
  Kd: 1.48 nM
  koff: 0.000678 s⁻¹
  kon: 458000 M⁻¹ s⁻¹

B3: B7-H4 antibody 20513 (antibody, human IgG1, kappa, V domains shown)
VH: QLQLQESGPGLVKPSETLSLTCTVSGGSISDGSYYWSWIRQHPGKGLEWIGNIYYSGSTYYNPSLRSRVTMSVDTSKNQFSLKLSSVTAADTAVYYCARGLSTIDEAFDPWGQGTLVTVSS
VL: not shown
notes: human IgG1/kappa
[4]
  Donor 1 Max IFNγ: 659 pg/mL
  Donor 2 Max IFNγ: 240 pg/mL
  Donor 3 Max IFNγ: 91.1 pg/mL
  Donor 4 Max IFNγ: 1630 pg/mL
  aAPC Assay EC50 (IFNγ production): 1.16 nM
[1]
  Kd: 4.57 nM
  koff: 0.00236 s⁻¹
  kon: 517000 M⁻¹ s⁻¹
[2]
  Kd: 3.98 nM
  koff: 0.0018 s⁻¹
  kon: 453000 M⁻¹ s⁻¹
[3]
  Kd: 3.67 nM
  koff: 0.0018 s⁻¹
  kon: 491000 M⁻¹ s⁻¹

B4: B7-H4 antibody 22216 (antibody, human IgG1, kappa, V domains shown)
VH: QVQLQESGPGLVKPSQTLSLTCTVSGGSISDGSYYWSWIRQHPGKGLEWIGNIYYSGSTYYNPSLRSRVTMSVDTSKNQFSLKLSSVTAADTAVYYCARGLSTIDEAFDPWGQGTLVTVSS
VL: DIQMTQSPSTLSASVGDRVTITCRASKSISSWLAWYQQKPGKAPKLLIYEASSLHSGVPSRFSGSGSGTEFTLTISSLQPDDFATYYCQQDNSYPYTFGGGTKVEIKR
notes: human IgG1/kappa
[1]
  Kd: 1.47 nM
  koff: 0.000359 s⁻¹
  kon: 245000 M⁻¹ s⁻¹
[2]
  Kd: 1.47 nM
  koff: 0.000359 s⁻¹
  kon: 245000 M⁻¹ s⁻¹
[3]
  Kd: 1.47 nM
  koff: 0.000359 s⁻¹
  kon: 245000 M⁻¹ s⁻¹

B5: B7-H4 antibody 20516 (antibody, human IgG1, kappa, V domains shown)
VH: QVQLQESGPGLVKPSETLSLTCTVSGGSIISYYWGWIRQPPGKGLEWIGYIYSSGSTSYNPSLKSRVTISVDTSKNQFSLKLSSVTAADTAVYYCARGSGLYAAPDYGLDVWGQGTTVTVSS
VL: DIQMTQSPSTLSASVGDRVTITCRASQSISSWLAWYQQKPGKAPKLLIYKASSLESGVPSRFSGSGSGTEFTLTISSLQPDDFATYYCQQDNSFPFTFGGGTKVEIKR
notes: human IgG1/kappa
[4]
  Donor 2 Max IFNγ: 441 pg/mL
[1]
  Kd: 41.4 nM
  koff: 0.0165 s⁻¹
  kon: 398000 M⁻¹ s⁻¹
[2]
  Kd: 18 nM
  koff: 0.00738 s⁻¹
  kon: 410000 M⁻¹ s⁻¹
[3]
  Kd: 17.6 nM
  koff: 0.00783 s⁻¹
  kon: 445000 M⁻¹ s⁻¹
